From patent publication US20230009582A1 (MEMO THERAPEUTICS, published 2023)

Legend:
[1] = molecular target: T1, Siglec-9-Fc (in-house production); experiment: blocking assay: Calcein-AM labelled sialic acid-displaying A549 tumour cells binding to plate-captured Siglec-9-Fc, antibody titrated, n=3
T1 construct: The entry holds the Siglec-9 part and the Fc together; also called Siglec-9-Fc protein
Procedure: FIG. 4: Titration of monoclonal antibodies (68D4 and 224B1; comparative monoclonal antibodies mAbA and 5C6 & negative control 53C3) to determine blocking the binding of sialic acid-displaying A549 tumour cells to Siglec-9. Tumour cells were fluorescently-loaded with Calcein-AM in advance to the binding experiment and binding was determined by the released fluorescence upon cell lysis. Fluorescence released in the absence of antibody was set to 100% binding. Data was fitted by three-parameter analysis in GraphPad Prism (GraphPad Software); n=3.
To analyse if anti-Siglec-9 antibodies recognize the ligand-binding domain and block the binding of Siglec-9 to its ligands, sialic acids, we performed a cell-based assay where the binding of sialic-acid expressing A549 tumour cells to Siglec-9-Fc is evaluated in ELISA. ELISA-plates were coated with 3 μg/ml Protein-A (Thermo Fisher Scientific) overnight at 4° C. Plates were blocked with PBS, 1% BSA for 1 h, and incubated with 5 μg/ml Siglec-9-Fc for 1 h at RT. Anti-Siglec-9 antibodies at different concentrations (starting at 8 μg/ml or 53 nM); were mixed 1:1 with Calcein-AM (Thermo Fisher Scientific) labeled A549 tumour cells. The mixture was added to the ELISA plate and incubated for 1 h at 4° C. After washing of the plate, cells that were bound to the plate were lysed with PBS, 1% Triton-X 100 and released fluorescence was measured at an excitation of 485 nm and emission of 535 nm with a Synergy H1 (BioTek). Data were fitted by three-parameter analysis in GraphPad Prism (GraphPad Software).

[2] = molecular target: T2, Siglec-9 expressed on cells (human, UniProt Q9Y336 18-463); experiment: flow cytometry on human CD14+ monocytes (PBMC), mean RFU of the secondary antibody, three-parameter fit
T2 construct: also called monocyte-expressed Siglec-9
T2 sequence (Q9Y336 18-463 limits assumed): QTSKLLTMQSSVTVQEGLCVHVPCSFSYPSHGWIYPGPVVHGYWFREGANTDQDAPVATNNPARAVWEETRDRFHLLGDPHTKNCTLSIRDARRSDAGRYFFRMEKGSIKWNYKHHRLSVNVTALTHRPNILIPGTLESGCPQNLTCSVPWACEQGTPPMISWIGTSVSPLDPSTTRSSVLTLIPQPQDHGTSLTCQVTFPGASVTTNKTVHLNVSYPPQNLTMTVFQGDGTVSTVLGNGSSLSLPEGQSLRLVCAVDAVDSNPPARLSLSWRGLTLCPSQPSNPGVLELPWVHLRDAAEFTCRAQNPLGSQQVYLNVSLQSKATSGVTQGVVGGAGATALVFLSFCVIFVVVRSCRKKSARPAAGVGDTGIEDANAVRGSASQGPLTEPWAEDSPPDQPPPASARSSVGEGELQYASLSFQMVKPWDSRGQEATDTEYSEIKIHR
Procedure: (§1) Human ex vivo PBMC were stained with fluorescence-labeled (allophycocyanin, APC) antibody to the monocyte marker CD14 (Biolegend) in assay buffer (0.5% (v/v) heat-inactivated fetal bovine serum (Gibco), 2 mM EDTA in phosphate-buffered saline). Subsequently, cells were incubated with antibodies under evaluation at various concentrations (67 nM-0.38 pM). After a washing step cells were incubated with fluorescence-labeled (Brilliant Violet 421™) secondary antibody against human IgG (mAbA) or rabbit IgG (all other monoclonal antibodies under evaluation; both secondary antibodies from Biolegend).
(§2) Binding of Siglec-9-specific antibodies to monocytes (CD14-positive life cells) was analysed with a CytoFLEX flow cytometer (Beckham Coulter's). The mean fluorescence intensity of the secondary antibody staining in the CD14-positive population at each dilution was determined using Flow Jo software (BD). Datapoints generated by this analysis were fitted and EC50 values were determined by three-parameter analysis in GraphPad Prism (GraphPad Software)

[3] = molecular target: T3, Siglec-5-Fc (R&D systems) (UniProt O15389 17-434, limits assumed); experiment: ELISA, coated Siglec-5-Fc 1 µg/ml, single antibody concentration, Abs 450 nm, n=3
T3 construct: Bought reagent; not shown: Fc part of the bought fusion; not described
T3 sequence (looked up): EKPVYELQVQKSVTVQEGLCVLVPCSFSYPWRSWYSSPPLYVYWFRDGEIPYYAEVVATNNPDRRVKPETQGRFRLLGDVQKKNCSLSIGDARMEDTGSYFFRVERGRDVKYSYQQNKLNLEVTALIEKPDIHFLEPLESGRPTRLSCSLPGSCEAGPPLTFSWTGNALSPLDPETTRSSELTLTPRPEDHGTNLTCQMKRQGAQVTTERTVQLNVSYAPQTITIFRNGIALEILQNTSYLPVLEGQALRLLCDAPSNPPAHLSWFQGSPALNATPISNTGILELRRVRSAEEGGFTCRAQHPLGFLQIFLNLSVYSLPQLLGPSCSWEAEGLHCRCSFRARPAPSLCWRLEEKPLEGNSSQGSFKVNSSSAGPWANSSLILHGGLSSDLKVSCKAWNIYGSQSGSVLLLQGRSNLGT
Procedure: (§3) Specificity towards Siglec-5, Siglec-7, Siglec-8, Siglec-15 and Siglec-9 was assayed in enzyme-linked immunosorbent assay (ELISA) using 96 well half-area ELISA plates (Corning). Siglec-5-Fc (R&D systems), Siglec-7-Fc (in-house production, Siglec-7-Fc protein used had the following amino acid sequence:
(§4) (SEQ ID NO: 59)) […] […] […] […] […] […] […] […] […] […] […] […], Siglec-8-Fc (R&D systems), Siglec-15- Fc (R&D systems) and Siglec-9-Fc (in-house production, SEQ ID NO: 11) were coated at 1 μg/ml in 50 mM carbonate-bicarbonate buffer pH 9.6 for 15-20 hours at 4° C.
(§5) Antigens were washed away (Tecan Hydrospeed) and plates were blocked with 5% skimmed milk in phosphate-buffered saline (PBS). After washing the plates, antibodies were added at 5 μg/ml (33 nM) in 0.5% milk PBS in triplicates. Plates with antibodies were incubated for 1 hour at room temperature. Plates were washed and bound antibodies were detected by horseradish peroxidase (HRP)-labeled polyclonal anti-rabbit IgG antibody (Biolegend) or anti-human Fab fragment for mAbA (Sigma Aldrich). 3,3′,5,5′-Tetramethylbenzidine (TMB; Sigma Aldrich) development was stopped by addition of sulfuric acid and absorbance was detected at 450 nm (Tecan, CM […] MONO 200).

[4] = molecular target: T4, Siglec-7-Fc (in-house production); experiment: ELISA, coated Siglec-7-Fc 1 µg/ml, single antibody concentration, Abs 450 nm, n=3
T4 construct: The entry holds the Siglec-7 part and the Fc together; also called Siglec-7-Fc protein
T4 sequence (chain, as listed by the source limits assumed): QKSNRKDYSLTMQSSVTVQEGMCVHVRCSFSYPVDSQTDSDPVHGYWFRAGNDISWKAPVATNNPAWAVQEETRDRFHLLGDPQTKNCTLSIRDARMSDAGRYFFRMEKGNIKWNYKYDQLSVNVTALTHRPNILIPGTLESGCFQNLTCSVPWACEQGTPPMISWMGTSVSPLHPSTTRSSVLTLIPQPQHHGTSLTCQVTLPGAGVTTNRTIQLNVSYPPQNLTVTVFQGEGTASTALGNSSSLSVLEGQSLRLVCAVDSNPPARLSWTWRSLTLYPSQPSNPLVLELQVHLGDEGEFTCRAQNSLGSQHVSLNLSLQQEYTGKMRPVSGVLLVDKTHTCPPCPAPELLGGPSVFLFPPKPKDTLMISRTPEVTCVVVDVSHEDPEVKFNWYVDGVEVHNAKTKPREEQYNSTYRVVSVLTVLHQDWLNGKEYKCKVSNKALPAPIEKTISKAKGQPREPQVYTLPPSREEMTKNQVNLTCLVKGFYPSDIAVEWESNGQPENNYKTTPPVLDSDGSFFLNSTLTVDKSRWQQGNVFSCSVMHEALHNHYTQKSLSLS
Procedure: as §3, §4, §5

[5] = molecular target: T5, Siglec-15-Fc (R&D systems) (UniProt Q6ZMC9 20-263, limits assumed); experiment: ELISA, coated Siglec-15-Fc 1 µg/ml, single antibody concentration, Abs 450 nm, n=3
T5 construct: Bought reagent; not shown: Fc part of the bought fusion; not described
T5 sequence (looked up): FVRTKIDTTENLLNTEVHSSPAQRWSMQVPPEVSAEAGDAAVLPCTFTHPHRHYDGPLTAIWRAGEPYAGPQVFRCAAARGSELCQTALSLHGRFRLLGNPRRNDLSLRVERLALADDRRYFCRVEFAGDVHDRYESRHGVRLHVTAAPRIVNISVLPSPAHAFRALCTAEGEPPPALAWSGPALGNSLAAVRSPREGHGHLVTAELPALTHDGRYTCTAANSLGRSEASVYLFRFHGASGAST
Procedure: as §3, §4, §5

[6] = molecular target: T6, Siglec-9 protein (construct not stated; antigen of Examples 3 and 4) (human, UniProt Q9Y336 18-348, limits assumed); experiment: ELISA, coated Siglec-9 1 µg/ml, antibody titrated, Abs 450 nm, three-parameter fit, n=3
T6 sequence (Q9Y336 18-348 limits assumed): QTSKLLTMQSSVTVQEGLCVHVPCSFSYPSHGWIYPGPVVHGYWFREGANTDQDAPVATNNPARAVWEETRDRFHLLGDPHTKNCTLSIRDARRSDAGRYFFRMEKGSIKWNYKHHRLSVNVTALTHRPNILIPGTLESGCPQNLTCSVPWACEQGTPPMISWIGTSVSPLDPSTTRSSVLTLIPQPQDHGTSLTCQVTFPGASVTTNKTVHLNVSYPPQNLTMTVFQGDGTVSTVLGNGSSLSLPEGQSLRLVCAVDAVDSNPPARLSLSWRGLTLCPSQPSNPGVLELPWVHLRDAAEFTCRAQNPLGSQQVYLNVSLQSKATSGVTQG
Procedure: FIG. 2: Binding curves of monoclonal antibodies (68D4 and 224B1; comparative monoclonal antibodies mAbA and 5C6 & negative control 53C3) towards Siglec-9 as analysed by ELISA. Binding of the monoclonal antibody to Siglec-9, as determined by measurement of the accumulated coloured product at 450 nm after stopping the reaction, is plotted against the concentration of the monoclonal antibody under evaluation.
Antibody binding affinity towards Siglec-9 was measured by a dilution series of the analysed antibodies on a fixed concentration of Siglec-9 protein in ELISA. To this end, Siglec-9 was coated at 1 μg/ml in 50 mM carbonate-bicarbonate buffer pH 9.6 for 15-20 hours at 4° C. Antigen solution was washed away (Tecan Hydrospeed) and plates were blocked with 5% skimmed milk in phosphate-buffered saline (PBS) for 1 hour at room temperature. Plates were washed and antibodies were added at concentrations of 0-420 nM. After incubation at room temperature for 1 hour plates were washed once more. Bound antibodies were detected by addition of horseradish peroxidase (HRP)-coupled secondary antibodies. Rabbit antibodies were detected by polyclonal anti-rabbit IgG antibody (Biolegend), mAbA by anti-human Fab fragment (Sigma Aldrich). After a last washing step, plates were developed by the addition of 3,3′,5,5′-Tetramethylbenzidine (TMB; Sigma Aldrich). Reaction was stopped by addition of sulfuric acid. Absorbance was detected at 450 nm (Tecan, CM […] MONO 200). Data were fitted and EC50 values were determined by three-parameter analysis in GraphPad Prism (GraphPad Software)

[7] = molecular target: T7, Siglec-8-Fc (R&D systems) (UniProt Q9NYZ4 17-363, limits assumed); experiment: ELISA, coated Siglec-8-Fc 1 µg/ml, single antibody concentration, Abs 450 nm, n=3
T7 construct: Bought reagent; not shown: Fc part of the bought fusion; not described
T7 sequence (Q9NYZ4 17-363 limits assumed): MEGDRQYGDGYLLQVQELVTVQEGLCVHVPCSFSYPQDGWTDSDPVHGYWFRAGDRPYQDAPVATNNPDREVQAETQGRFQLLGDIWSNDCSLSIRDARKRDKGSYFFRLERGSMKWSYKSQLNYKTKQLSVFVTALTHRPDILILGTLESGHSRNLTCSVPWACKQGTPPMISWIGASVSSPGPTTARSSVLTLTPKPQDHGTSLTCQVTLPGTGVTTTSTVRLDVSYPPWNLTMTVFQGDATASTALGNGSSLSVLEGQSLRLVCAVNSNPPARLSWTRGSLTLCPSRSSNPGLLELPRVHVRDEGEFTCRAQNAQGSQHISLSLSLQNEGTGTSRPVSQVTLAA
Procedure: as §3, §4, §5

[8] = molecular target: extra-cellular domain of Siglec-9 fused to a C-terminal his-tag (Homo sapiens (Human), UniProt Q9Y336 18-348); experiment: ELISA, coated his-tagged Siglec-9 extracellular domain, anti-human Fc gamma detection, Abs 450 nm
Chain of extra-cellular domain of Siglec-9 fused to a C-terminal his-tag (Q9Y336 18-348 limits assumed): as the sequence (Q9Y336 18-348 limits assumed) above
Source text: (SEQ ID NO: 44) […] […] […] […] […] […] […]. For detection of bound IgG either polyclonal anti- rabbit IgG antibody (68D4; Biolegend, #406401), or anti-human Fey fragment (humanized 68D4 and mAbA; Jackson Immuno Research laboratories, #109-035-098) were used.

[9] = molecular target: T6, Siglec-9 protein (construct not stated; …); experiment: SPR (Carterra LSA), antibody coupled to HC2000M chip, antigen in solution
Procedure: (§6) KD determination was performed by SPR by individually coating the antibodies to HC2000M chips via sulpho-NHS/EDC coupling chemistry. Chips were afterwards blocked with ethanolamine. Antigen was applied in one of the three different concentrations (20 nM, 100 nM and 500 nM) with a contact time of 240 s, followed by a dissociation phase of 120 s. After each antigen incubation, the bound antigen was removed from the antibodies with 10 mM glycine at pH 2.0. All kinetic parameters (kₒₙ, koff and KD) were determined using a kinetic fitting program (LSA Kinetics, Carterra).

[10] = molecular target: T1, Siglec-9-Fc (in-house production); experiment: ELISA, coated Siglec-9-Fc 1 µg/ml, antibody at 5 µg/ml (33 nM), Abs 450 nm, n=3
Procedure: as §3, §4, §5

[11] = molecular target: T6, Siglec-9 protein (construct not stated; …); experiment: SPR (Carterra LSA), antibody coupled to HC2000M chip, antigen at 20, 100 and 500 nM
Procedure: as §6

[12] = molecular target: T2, Siglec-9 expressed on cells; experiment: flow cytometry on human CD14+ monocytes in PBMC
Procedure: as §1, §2

T1 sequence (chain, as listed by the source limits assumed): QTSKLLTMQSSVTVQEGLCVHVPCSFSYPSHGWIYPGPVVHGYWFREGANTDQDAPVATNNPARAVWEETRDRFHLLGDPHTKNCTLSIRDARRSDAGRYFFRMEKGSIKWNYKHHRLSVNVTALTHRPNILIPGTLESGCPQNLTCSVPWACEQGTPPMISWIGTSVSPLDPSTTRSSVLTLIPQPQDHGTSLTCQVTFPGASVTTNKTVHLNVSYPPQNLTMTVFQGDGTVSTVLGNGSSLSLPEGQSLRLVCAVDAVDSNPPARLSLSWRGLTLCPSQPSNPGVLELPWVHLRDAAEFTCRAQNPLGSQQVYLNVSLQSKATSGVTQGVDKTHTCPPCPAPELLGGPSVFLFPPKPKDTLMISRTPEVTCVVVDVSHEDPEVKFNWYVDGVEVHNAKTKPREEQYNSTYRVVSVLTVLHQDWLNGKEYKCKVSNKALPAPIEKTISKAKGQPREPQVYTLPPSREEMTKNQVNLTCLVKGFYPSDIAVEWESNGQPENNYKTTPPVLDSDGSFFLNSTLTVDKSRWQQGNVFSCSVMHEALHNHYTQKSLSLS

Row | Binder | binding result [1] | EC50 [2] | binding result [3] | binding result [4] | binding result [5] | EC50 [6] | binding result [7] | EC50 (read off the curve) [8] | fold better dissociation constant than mAbA [9] | binding result [10] | Kd [11] | koff [11] | kon [11] | fold stronger avidity than mAbA [12] | fold stronger binding than 5C6 [12]
1 | comparative monoclonal antibody 5C6 (WO 2017/075432), mouse-rabbit chimera (antibody, V domains shown) VH: EVQLQQSGPELVKPGASVRISCKASGYTFTDYNIHWVKQSQGKSLEWIGYIYPYNGDTGYNQKFQNKATLTVDNSSSTAYMELRSLTSEDSAVYYCANGNYLYYYAMDYWGQGTSVTVSS VL: DVVMTQTPLSLPVSLGDQVSISCSSSQSLVHSNGNTYLHWYLQKSGQSPKLLIYKVSNRFSGVPDRFRGSGSGTDFTLKISRVEAEDLGVYFCSQNTHVPLTFGAGTKLELKG | binds | 4.18 nM | no binding (tested: 5 µg/ml) | no binding (tested: 5 µg/ml) | no binding (tested: 5 µg/ml) | 0.34 nM | no binding (tested: 5 µg/ml) | – | – | – | – | – | – | – | –
2 | humanized anti-Siglec-9 antibody 68D4 (68D4-hum) (antibody, human IgG1, kappa, V domains shown, Human IgG1/kappa, expressed in HEK293F cells; also called humanized 68D4) VH: EVQLVESGGGLVQPGGSLRISCAASGIDLSSYDMTWVRQAPGKGLEWVSIIYTGGLTYYADSVKGRFTISRDNSKNTVYLQMNSLRAEDTAVYYCAREVGDNNNFWGQGTLVTVSS VL: DIVMTQSPSSVSASVGDRVTITCRASESVSSGLAWYQQKPGKAPKLLVYDDTDLASGVPSRFSGSGSGTEFTLTISSLQPDDFATFYCQYTDYGRTYVGTFGGGTKVEIKR | – | – | – | – | – | – | – | ~0.06 nM | – | – | – | – | – | – | –
3 | monoclonal antibody 68D4 (rabbit) (antibody, V domains shown, also called rb 68D4; rabbit 68D4) VH: QSLEESGGRLVKPDETLTITCTVSGIDLSSYDMTWVRQAPGKGLEWIGIIYTGGLTYYASWAKGRFTISKTSTTVDLKITSPTTEDTATYFCAREVGDNNNFWGPGTLVTVSS VL: DVVMTQTPASVSEPVGGTVTIKCQASESVDSGLAWYHQKPGQPPKLLIYDDTDLASGVPSRFKGSRSGTAHTLTISDLECADAATYYCQYTDYGRTYVGTFGGGTEVVIKG | – | 0.19 nM | no binding (tested: 5 µg/ml) | no binding (tested: 5 µg/ml) | no binding (tested: 5 µg/ml) | 0.05 nM | no binding (tested: 5 µg/ml) | – | ~16.7 fold | binds | 0.15 nM | 9.6e-05 s⁻¹ | 640000 M⁻¹ s⁻¹ | ~3 fold | ~22 fold
